Measurements reported in article PMC7262597.
Each block holds one substance with its values, some of them ahead of it.

Key:
Assay in all cases: GST pull-down (autoradiography, quantified)
[1] = target: GST-Atg8a K48Q (UniProt Q9W2S2); settings: percentage binding relative to 10% of the input; 3 independent experiments; parent: est. 25; read off a plot
[2] = target: radiolabeled myc-Sequoia-WT; settings: percentage binding relative to 10% of the input; 3 independent experiments; parent: est. 25; read off a plot
[3] = target: GST-Atg8a K46Q (UniProt Q9W2S2); settings: percentage binding relative to 10% of the input; 3 independent experiments; parent: est. 25; read off a plot
Chain of GST-Atg8a K46Q (Q9W2S2 entry or part of it K46Q | K46Q): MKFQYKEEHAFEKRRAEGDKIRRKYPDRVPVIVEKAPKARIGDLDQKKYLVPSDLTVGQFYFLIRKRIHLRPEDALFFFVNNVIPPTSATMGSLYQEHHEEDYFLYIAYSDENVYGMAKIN

[4] = target: GST-Atg8a K47Q (UniProt Q9W2S2); settings: percentage binding relative to 10% of the input; 3 independent experiments; parent: est. 25; read off a plot
Chain of GST-Atg8a K47Q (Q9W2S2 entry or part of it K47Q | K47Q): as the sequence (Q9W2S2 entry or part of it K46Q | K46Q) above, with Q46K, K47Q counted along it

[5] = target: GST-Atg8a-LDS mutant (Y49A) (UniProt Q9W2S2); settings: parent: est. 25, read off a plot
Chain of GST-Atg8a-LDS mutant (Y49A) (Q9W2S2 entry or part of it Y49A | Y49A): as the sequence (Q9W2S2 entry or part of it K46Q | K46Q) above, with Q46K, Y49A counted along it

[6] = target: GST-Atg8a-WT (UniProt Q9W2S2); settings: parent: est. 25, read off a plot
Chain of GST-Atg8a-WT (Q9W2S2 entry or part of it): as the sequence (Q9W2S2 entry or part of it K46Q | K46Q) above, with Q46K counted along it

[7] = target: radiolabeled GFP-Sequoia-WT; settings: parent: est. 25; read off a plot
[8] = target: GST-Atg8a K46Q Y49A; settings: percentage binding relative to 10% of the input; 3 independent experiments; parent: est. 25; read off a plot
[9] = percentage binding relative to 10% of the input, 3 independent experiments

Chain of GST-Atg8a K48Q (Q9W2S2 entry or part of it K48Q | K48Q): as the sequence (Q9W2S2 entry or part of it K46Q | K46Q) above, with Q46K, K48Q counted along it

Substance: m11; m1 Sequoia:Y313A; Sequoia:I316A; Atg8a:K48Q
response [1]: 8 % Binding

Substance: GST-Atg8a-WT (from UniProt Q9W2S2) K46Q
response [2]: 25 % Binding

Substance: m11; m1 Sequoia:Y313A; Sequoia:I316A; Atg8a:K46Q
response [3]: 18 % Binding

Substance: GST-Atg8a-WT (from UniProt Q9W2S2) K48Q
response [2]: 12 % Binding

Substance: m11; m1 Sequoia:Y313A; Sequoia:I316A; Atg8a:K47Q
response [4]: 12 % Binding

Substance: m9; m1 Sequoia:Y313A; Sequoia:I316A; Atg8a:Y49A
response [5]: 5.6 % of binding

Substance: radiolabeled myc-Sequoia-WT Y313A; I316A
response [6, 9]: 14 % Binding

Substance: radiolabeled GFP-Sequoia-WT Y313A; I316A
response [6]: 14 % of binding

Substance: m11; m1 Sequoia:Y313A; Sequoia:I316A; Atg8a:K46Q; Atg8a:Y49A
response [8]: 3.2 % Binding

Further lines, results first:

response [2]: 2.7 % Binding
response [7]: 8 % of binding
Substance: GST-Atg8a-WT (from UniProt Q9W2S2) Y49A

response [2]: 24 % Binding
Substance: GST-Atg8a-WT (from UniProt Q9W2S2) K47Q

response [2]: 3.6 % Binding
Substance: GST-Atg8a-WT (from UniProt Q9W2S2) K46Q; Y49A

response [5, 9]: 2.9 % Binding
Substance: m11; m1 Sequoia:Y313A; Sequoia:I316A; Atg8a:Y49A
